Article PMC3252480 (Nature structural & molecular biology, 2011)

T1: GST-Ypt53 (S. cerevisiae, UniProt P36019 1-220)
T1 sequence (looked up): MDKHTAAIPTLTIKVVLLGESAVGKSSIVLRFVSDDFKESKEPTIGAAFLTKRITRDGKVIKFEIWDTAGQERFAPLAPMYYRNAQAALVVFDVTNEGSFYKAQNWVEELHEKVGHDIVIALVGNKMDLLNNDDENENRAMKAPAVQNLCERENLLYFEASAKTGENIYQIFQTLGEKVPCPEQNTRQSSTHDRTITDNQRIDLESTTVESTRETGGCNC

B1: GST-Ypt10 (natural protein, S. cerevisiae, UniProt P38146 1-199, looked up)
chain: MEATIKVVLLGDSSVGKTSIVTRLKSGKFLAKHAATIGAAFITKTIEVPSNDSSTEKRIHMEIWDTAGQERYKSLVPMYYRDANIALIVFELGDVSSLQCAKTWFQDLQDRAQGTQVIIVGNKYDLVCEEHSGEVTIPAELQGLPYVAVSAKTGYNFDTLNKIIISLVPESQFKTLSKNNEQGNILEINKKKSGSGCIC
B2: Vps21-His10 (natural protein, S. cerevisiae, UniProt P36017 1-210, looked up)
chain: MNTSVTSIKLVLLGEAAVGKSSIVLRFVSNDFAENKEPTIGAAFLTQRVTINEHTVKFEIWDTAGQERFASLAPMYYRNAQAALVVYDVTKPQSFIKARHWVKELHEQASKDIIIALVGNKIDMLQEGGERKVAREEGEKLAEEKGLLFFETSAKTGENVNDVFLGIGEKIPLKTAEEQNSASNERESNNQRVDLNAANDGTSANSACSC

How the values were obtained:
[1] = target: Vps21-His10 (S. cerevisiae) (UniProt P36017); experiment: liposome tethering by quasielastic light scattering
Vps21-His10 = target: B2; experiment: bead-liposome tethering assay
GST-Ypt53 = target: T1, GST-Ypt53; experiment: bead-liposome tethering assay

For “Vps21-His10 (from UniProt P36017 1-210) (natural protein)”, the critical surface density for tethering [1] was less than 1300 μm^−2.

B1: binds (Vps21-His10).

B2: binds (GST-Ypt53).
